Article PMC9352680, “A comprehensive thermodynamic model for RNA binding by the Saccharomyces cerevisiae Pumilio protein PUF4”
Changes are numbered by the printed parent chain. In names and notes the source's numbering stands.

T1: PUF4 RNA-binding domain (Saccharomyces cerevisiae, UniProt P25339 537-888)
T1 sequence: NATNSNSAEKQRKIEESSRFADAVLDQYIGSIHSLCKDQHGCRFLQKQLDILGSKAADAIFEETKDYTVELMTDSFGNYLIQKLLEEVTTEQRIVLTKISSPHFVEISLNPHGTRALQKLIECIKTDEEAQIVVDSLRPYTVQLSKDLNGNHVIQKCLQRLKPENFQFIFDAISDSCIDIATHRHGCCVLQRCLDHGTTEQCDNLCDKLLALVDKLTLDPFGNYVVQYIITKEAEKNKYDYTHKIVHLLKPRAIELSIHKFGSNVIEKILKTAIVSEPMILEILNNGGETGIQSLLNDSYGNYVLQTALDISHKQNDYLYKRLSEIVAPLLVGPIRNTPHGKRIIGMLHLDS

B1: Ib_S2_P3E.1_K3.1_C3.1_H3.1_A3.1_[A6G]_F3.1_[A8T]_T3.1 (ssRNA)
RNA: UUUGAUUAAUAUGAUAUCGUUCUUUCUUGUAUGUUUUCUUUCUCGAUAUCAUAUUAAUCUUU
B2: Ib_S2_P3E.1_K3.1_C3.1_H3.1_A3.1_[A6T]_F3.1_[A8T]_T3.1 (ssRNA)
RNA: B1 RNA with G33U
B3: Ic_S2_P3E.1_K3.1_C3.1_H3.1_A3.1_[A6C]_F3.1_[A8T]_T3.1 (ssRNA)
RNA: B1 RNA with G33C
B4: Ie_S2_P4E.1_K4.1_C4.1_H4.1_A4.1_F4.1_[+8C]_T4.1 (ssRNA)
RNA: UUUGAUUAAUAUGAUAUCGUUCUUUCUUGUAUAUUCAUUCUUUCUCGAUAUCAUAUUAAUCUUU
B5: Ie_S2_P4E.1_K4.1_C4.1_H4.1_A4.1_[+6CT]_F4.1_T4.1 (ssRNA)
RNA: UUUGAUUAAUAUGAUAUCGUUCUUUCUUGUAUACUUUAUUCUUUCUCGAUAUCAUAUUAAUCUUU
B6: Ie_S2_P4E.1_K4.1_C4.1_H4.1_A4.1_[+6TC]_F4.1_T4.1 (ssRNA)
RNA: B5 RNA with C34U, U35C
B7: Ie_S2_P4E.1_K4.1_C4.1_H4.1_A4.1_[+7CC]_F4.1_T4.1 (ssRNA)
RNA: B5 RNA with C34U, U35C, U36C
B8: Ie_S2_P4E.1_K4.1_C4.1_H4.1_A4.1_F4.1_[+8CC]_T4.1 (ssRNA)
RNA: B5 RNA with C34U, U36C, U37C
B9: Ie_S2_P4E.1_K4.1_C4.1_H4.1_A4.1_F4.1_[+8CT]_T4.1 (ssRNA)
RNA: B5 RNA with C34U, U36C
B10: Ie_S2_P4E.1_K4.1_C4.1_H4.1_A4.1_[+7TT]_F4.1_T4.1 (ssRNA)
RNA: B5 RNA with C34U
B11: Ie_S2_P4E.1_K4.1_C4.1_H4.1_A4.1_F4.1_[+8TC]_T4.1 (ssRNA)
RNA: B5 RNA with C34U, U37C
B12: Ie_S2_P5E.1_K5.1_C5.1_H5.1_A5.1_[+6CTC]_F5.1_T5.1 (ssRNA)
RNA: UUUGAUUAAUAUGAUAUCGUUCUUUCUUGUAUUCUCAUUAUUCUUUCUCGAUAUCAUAUUAAUCUUU
B13: Ie_S2_P4E.1_K4.1_C4.1_H4.1_A4.1_F4.1_[+8CTCT]_T4.1 (ssRNA)
RNA: B12 RNA with U33A, C34U, A37U, U38C
B14: Ie_S2_P4E.1_K4.1_C4.1_H4.1_A4.1_[+7CCCT]_F4.1_T4.1 (ssRNA)
RNA: B12 RNA with U33A, C34U, U35C, A37C
B15: Ie_S2_P4E.1_K4.1_C4.1_H4.1_A4.1_[+5TTCC]_F4.1_T4.1 (ssRNA)
RNA: B12 RNA with C34U, U35C
B16: Ie_S2_P4E.1_K4.1_C4.1_H4.1_A4.1_[+6CCTC]_F4.1_T4.1 (ssRNA)
RNA: B12 RNA with U33A, U35C, C36U, A37C
B17: Ie_S2_P4E.1_K4.1_C4.1_H4.1_A4.1_[+7CTCT]_F4.1_T4.1 (ssRNA)
RNA: B12 RNA with U33A, C34U, U35C, C36U, A37C
B18: Ie_S2_P4E.1_K4.1_C4.1_H4.1_A4.1_[+7CCTC]_F4.1_T4.1 (ssRNA)
RNA: B12 RNA with U33A, C34U, U35C, A37U, U38C
B19: Ie_S2_P4E.1_K4.1_C4.1_H4.1_A4.1_F4.1_[+8CCTC]_T4.1 (ssRNA)
RNA: B12 RNA with U33A, C34U, A37C, U39C
B20: Ie_S2_P4E.1_K4.1_C4.1_H4.1_A4.1_[+6CCCT]_F4.1_T4.1 (ssRNA)
RNA: B12 RNA with U33A, U35C, A37U
B21: Ie_S2_P4E.1_K4.1_C4.1_H4.1_A4.1_[+6CTCT]_F4.1_T4.1 (ssRNA)
RNA: B12 RNA with U33A, A37U
B22: Ie_S2_P4E.1_K4.1_C4.1_H4.1_A4.1_[+5TCTCT]_F4.1_T4.1 (ssRNA)
RNA: UUUGAUUAAUAUGAUAUCGUUCUUUCUUGUAUUCUCUAUUAUUCUUUCUCGAUAUCAUAUUAAUCUUU
B23: Ie_S2_P5E.1_K5.1_C5.1_H5.1_A5.1_[+5TTCC]_F5.1_T5.1 (ssRNA)
RNA: B22 RNA with C34U, U35C
B24: Ie_S2_P4E.1_K4.1_C4.1_H4.1_A4.1_[+6CCCTT]_F4.1_T4.1 (ssRNA)
RNA: B22 RNA with U33A, U35C, A38U
B25: Ie_S2_P4E.1_K4.1_C4.1_H4.1_A4.1_[+6CTCTC]_F4.1_T4.1 (ssRNA)
RNA: B22 RNA with U33A, A38C
B26: Ie_S2_P5E.1_K5.1_C5.1_H5.1_A5.1_[+5CCCT]_F5.1_T5.1 (ssRNA)
RNA: B22 RNA with U33C, U35C, C36U
B27: Ie_S2_P5E.1_K5.1_C5.1_H5.1_A5.1_[+5CCTC]_F5.1_T5.1 (ssRNA)
RNA: B22 RNA with U33C
B28: Ie_S2_P4E.1_K4.1_C4.1_H4.1_A4.1_[+7CTCTC]_F4.1_T4.1 (ssRNA)
RNA: B22 RNA with U33A, C34U, U35C, C36U, U37C, A38U, U39C
B29: Ie_S2_P4E.1_K4.1_C4.1_H4.1_A4.1_[+5TCC]_F4.1_T4.1 (ssRNA)
RNA: UUUGAUUAAUAUGAUAUCGUUCUUUCUUGUAUUCCAUUAUUCUUUCUCGAUAUCAUAUUAAUCUUU
B30: Ie_S2_P4E.1_K4.1_C4.1_H4.1_A4.1_F4.1_[+8CCT]_T4.1 (ssRNA)
RNA: B29 RNA with U33A, C34U, C35U, A36C, U37C
B31: Ie_S2_P4E.1_K4.1_C4.1_H4.1_A4.1_F4.1_[+8TCC]_T4.1 (ssRNA)
RNA: B29 RNA with U33A, C34U, C35U, A36U, U37C, U38C
B32: Ie_S2_P4E.1_K4.1_C4.1_H4.1_A4.1_[+7CTC]_F4.1_T4.1 (ssRNA)
RNA: B29 RNA with U33A, C34U, A36U, U37C
B33: Ie_S2_P4E.1_K4.1_C4.1_H4.1_A4.1_[+7CCT]_F4.1_T4.1 (ssRNA)
RNA: B29 RNA with U33A, C34U, A36C
B34: Ie_S2_P4E.1_K4.1_C4.1_H4.1_A4.1_F4.1_[+8CTC]_T4.1 (ssRNA)
RNA: B29 RNA with U33A, C34U, C35U, A36C, U38C
B35: Ie_S2_P4E.1_K4.1_C4.1_H4.1_A4.1_[+7CCC]_F4.1_T4.1 (ssRNA)
RNA: B29 RNA with U33A, C34U, A36C, U37C
B36: Ie_S2_P4E.1_K4.1_C4.1_H4.1_A4.1_[+5TTC]_F4.1_T4.1 (ssRNA)
RNA: B29 RNA with C34U
B37: Ie_S2_P4E.1_K4.1_C4.1_H4.1_A4.1_[+6CCT]_F4.1_T4.1 (ssRNA)
RNA: B29 RNA with U33A, A36U
B38: Ie_S2_P4E.1_K4.1_C4.1_H4.1_A4.1_F4.1_[+8CTT]_T4.1 (ssRNA)
RNA: B29 RNA with U33A, C34U, C35U, A36C
B39: Ie_S2_P4E.1_K4.1_C4.1_H4.1_A4.1_[+6TTT]_F4.1_T4.1 (ssRNA)
RNA: B29 RNA with U33A, C34U, C35U, A36U

Target: T1, PUF4 RNA-binding domain
Assay: Mg; RNA-MaP; 20 mM Na-HEPES pH 7.4, 30 mM KOAc, 0.75 mM MgCl2, 0.1% Tween-20, 5% glycerol, 0.1 mg/mL BSA, 2 mM DTT; 25 C; 0.0125-409.6 nM protein
Conditions: tags: N-His6-TEV cleaved; C-SNAP kept, Cy3B-labelled; label: tethered on chip by stalled RNA polymerase

Binder	Kd [nM]
B1	22.5
B2	10.5
B3	9.3
B4	6.81
B5	3.75
B6	4.55
B7	11.7
B8	5.04
B9	3.57
B10	2.3
B11	6.93
B12	18.7
B13	4.74
B14	10.1
B15	47.7
B16	14.8
B17	12.8
B18	12.2
B19	4.56
B20	26.5

Binder	Kd [nM]
B21	6.3
B22	7.74
B23	7.16
B24	20.8
B25	6.56
B26	11.9
B27	10.2
B28	9
B29	46.4
B30	3.9
B31	3.54
B32	8.21
B33	10.6
B34	5.23
B35	13.5
B36	29.9
B37	12.7
B38	4.6
B39	3.88
